Laboratory results reported in patent publication US20170209564A1.

Experiments:
Settings in all cases: remark: other sources report otherwise
75H8 = test: ELISA signal over HTRF expression signal, P. pastoris
48B11 = test: as above
71E7 = test: as above
84E10 = test: as above
48B10 = test: as above
71C4 = test: as above
84D3 = test: as above
4C1 = test: as above
79F8 = test: as above
96G5 = test: as above
53G10 = test: as above
35H3 = test: as above
91C4 = test: as above
86G2 = test: as above
58C8 = test: as above
88C5 = test: as above
78F11 = test: as above
67C10 = test: as above
86G3 = test: as above
850 = test: as above
72D4 = test: as above
87H5 = test: as above
86F1 = test: as above
8A10 = test: as above
36H2 = test: as above
54H4 = test: as above
6E12 = test: as above
90A9 = test: as above
89F11 = test: as above
80F10 = test: as above
75E9 = test: as above
[1] = target: T1, H1-mini2-cluster1+5+6-GCN4 without leader sequence and with FLAG-thrombin-foldon-HIS; test: ELISA signal over HTRF expression signal, HEK293F; the reference itself
s127H1 = test: apparent Kd (Kd^app), purified polypeptide; method not stated
s74H9 = test: as above
s55G7 = test: as above
s6E12 = test: as above
s86B4 = test: as above
[2] = target: T1, H1-mini2-cluster1+5+6-GCN4 without …; test: ELISA, coated CR6261, HEK293F medium; average of the parental

B1: CR6261 (antibody, V domains shown)
VH: EVQLVESGAEVKKPGSSVKVSCKASGGPFRSYAISWVRQAPGQGPEWMGGIIPIFGTTKYAPKFQGRVTITADDFAGTVYMELSSLRSEDTAMYYCAKHMGYQVRETMDVWGKGTTVTVSS
VL: QSVLTQPPSVSAAPGQKVTISCSGSSSNIGNDYVSWYQQLPGTAPKLLIYDNNKRPSGIPDRFSGSKSGTSATLGITGLQTGDEANYYCATWDRRPTAYVVFGGGTKLTVLG
Question: Which fold increase of ratio over parental SEQ ID NO: 6 (75H8) does the source give for B1 here?
Answer: 1.73

Question: And the ratio (binding signal/HTRF signal) (75H8)?
Answer: 10.2

Question: What about the fold increase of ratio over parental SEQ ID NO: 6 (48B11) of the same binder?
Answer: 3.41

Question: And the ratio (binding signal/HTRF signal) (48B11)?
Answer: 20.3

Question: And the fold increase of ratio over parental SEQ ID NO: 6 (71E7)?
Answer: 3.19

Question: What about the ratio (binding signal/HTRF signal) (71E7) of the same binder?
Answer: 19

Question: What about the fold increase of ratio over parental SEQ ID NO: 6 (84E10) of the same binder?
Answer: 5.37

Question: What about the ratio (binding signal/HTRF signal) (84E10) of the same binder?
Answer: 31.9

Question: What about the fold increase of ratio over parental SEQ ID NO: 6 (48B10) of the same binder?
Answer: 3.16

Question: What about the ratio (binding signal/HTRF signal) (48B10) of the same binder?
Answer: 18.8

Question: And the fold increase of ratio over parental SEQ ID NO: 6 (71C4)?
Answer: 5.13

Question: And the ratio (binding signal/HTRF signal) (71C4)?
Answer: 30.4

Question: What about the fold increase of ratio over parental SEQ ID NO: 6 (84D3) of the same binder?
Answer: 4.87

Question: What about the ratio (binding signal/HTRF signal) (84D3) of the same binder?
Answer: 28.9

Question: What about the fold increase of ratio over parental SEQ ID NO: 6 (4C1) of the same binder?
Answer: 3.92

Question: What about the ratio (binding signal/HTRF signal) (4C1) of the same binder?
Answer: 23.3

Question: And the fold increase of ratio over parental SEQ ID NO: 6 (79F8)?
Answer: 2.64

Question: What about the ratio (binding signal/HTRF signal) (79F8) of the same binder?
Answer: 15.7

Question: What about the fold increase of ratio over parental SEQ ID NO: 6 (96G5) of the same binder?
Answer: 2.4

Question: What about the ratio (binding signal/HTRF signal) (96G5) of the same binder?
Answer: 14.3

Question: And the fold increase of ratio over parental SEQ ID NO: 6 (53G10)?
Answer: 2.93

Question: And the ratio (binding signal/HTRF signal) (53G10)?
Answer: 17.4

Question: And the fold increase of ratio over parental SEQ ID NO: 6 (35H3)?
Answer: 2.94

Question: What about the ratio (binding signal/HTRF signal) (35H3) of the same binder?
Answer: 17.4

Question: And the fold increase of ratio over parental SEQ ID NO: 6 (91C4)?
Answer: 4.35

Question: And the ratio (binding signal/HTRF signal) (91C4)?
Answer: 25.8

Question: What about the fold increase of ratio over parental SEQ ID NO: 6 (86G2) of the same binder?
Answer: 1.93

Question: And the ratio (binding signal/HTRF signal) (86G2)?
Answer: 11.5

Question: And the fold increase of ratio over parental SEQ ID NO: 6 (58C8)?
Answer: 2.51

Question: And the ratio (binding signal/HTRF signal) (58C8)?
Answer: 14.9

Question: What about the fold increase of ratio over parental SEQ ID NO: 6 (88C5) of the same binder?
Answer: 5.94

Question: What about the ratio (binding signal/HTRF signal) (88C5) of the same binder?
Answer: 35.3

Question: And the fold increase of ratio over parental SEQ ID NO: 6 (78F11)?
Answer: 3.41

Question: And the ratio (binding signal/HTRF signal) (78F11)?
Answer: 20.2

Question: What about the fold increase of ratio over parental SEQ ID NO: 6 (67C10) of the same binder?
Answer: 3.99

Question: What about the ratio (binding signal/HTRF signal) (67C10) of the same binder?
Answer: 23.7

Question: And the fold increase of ratio over parental SEQ ID NO: 6 (86G3)?
Answer: 3.87

Question: And the ratio (binding signal/HTRF signal) (86G3)?
Answer: 23

Question: What about the fold increase of ratio over parental SEQ ID NO: 6 850 of the same binder?
Answer: 4.07

Question: What about the ratio (binding signal/HTRF signal) 850 of the same binder?
Answer: 24.2

Question: And the fold increase of ratio over parental SEQ ID NO: 6 (72D4)?
Answer: 6.25

Question: What about the ratio (binding signal/HTRF signal) (72D4) of the same binder?
Answer: 37.1

Question: What about the fold increase of ratio over parental SEQ ID NO: 6 (87H5) of the same binder?
Answer: 1.64

Question: And the ratio (binding signal/HTRF signal) (87H5)?
Answer: 9.77

Question: What about the fold increase of ratio over parental SEQ ID NO: 6 (86F1) of the same binder?
Answer: 2.92

Question: And the ratio (binding signal/HTRF signal) (86F1)?
Answer: 17.4

Question: And the fold increase of ratio over parental SEQ ID NO: 6 (8A10)?
Answer: 6.29

Question: And the ratio (binding signal/HTRF signal) (8A10)?
Answer: 37.4

Question: What about the fold increase of ratio over parental SEQ ID NO: 6 (36H2) of the same binder?
Answer: 1.95

Question: And the ratio (binding signal/HTRF signal) (36H2)?
Answer: 11.6

Question: And the fold increase of ratio over parental SEQ ID NO: 6 (54H4)?
Answer: 8.39

Question: What about the ratio (binding signal/HTRF signal) (54H4) of the same binder?
Answer: 49.8

Question: And the fold increase of ratio over parental SEQ ID NO: 6 (6E12)?
Answer: 2.85

Question: What about the ratio (binding signal/HTRF signal) (6E12) of the same binder?
Answer: 16.9

Question: And the fold increase of ratio over parental SEQ ID NO: 6 (90A9)?
Answer: 7.72

Question: And the ratio (binding signal/HTRF signal) (90A9)?
Answer: 45.8

Question: What about the fold increase of ratio over parental SEQ ID NO: 6 (89F11) of the same binder?
Answer: 2.42

Question: And the ratio (binding signal/HTRF signal) (89F11)?
Answer: 14.4

Question: And the fold increase of ratio over parental SEQ ID NO: 6 (80F10)?
Answer: 1.78

Question: What about the ratio (binding signal/HTRF signal) (80F10) of the same binder?
Answer: 10.6

Question: And the fold increase of ratio over parental SEQ ID NO: 6 (75E9)?
Answer: 2.17

Question: What about the ratio (binding signal/HTRF signal) (75E9) of the same binder?
Answer: 12.9

Question: What about the fold increase of ratio over parental SEQ ID NO: 6 [1] of the same binder?
Answer: 1

Question: What about the Kd (s127H1) of the same binder?
Answer: 0.13 µM

Question: What about the Kd (s74H9) of the same binder?
Answer: 0.13 µM

Question: And the Kd (s55G7)?
Answer: 0.15 µM

Question: What about the Kd (s6E12) of the same binder?
Answer: 0.39 µM

Question: What about the Kd (s86B4) of the same binder?
Answer: 0.15 µM

Question: And the CR6261 binding signal [2]?
Answer: 5.66e+06
